Test [1] addresses GFP-tagged VPS35L(I761G) (human) (UniProt Q7Z3J2). Put plainly: co-IP.
Test [2] addresses GFP-tagged VPS35L with complete deletion of the β-hairpin (human) (UniProt Q7Z3J2). Put plainly: co-IP.

Sequence of GFP-tagged VPS35L(I761G) (human) (Q7Z3J2 whole entry I761G): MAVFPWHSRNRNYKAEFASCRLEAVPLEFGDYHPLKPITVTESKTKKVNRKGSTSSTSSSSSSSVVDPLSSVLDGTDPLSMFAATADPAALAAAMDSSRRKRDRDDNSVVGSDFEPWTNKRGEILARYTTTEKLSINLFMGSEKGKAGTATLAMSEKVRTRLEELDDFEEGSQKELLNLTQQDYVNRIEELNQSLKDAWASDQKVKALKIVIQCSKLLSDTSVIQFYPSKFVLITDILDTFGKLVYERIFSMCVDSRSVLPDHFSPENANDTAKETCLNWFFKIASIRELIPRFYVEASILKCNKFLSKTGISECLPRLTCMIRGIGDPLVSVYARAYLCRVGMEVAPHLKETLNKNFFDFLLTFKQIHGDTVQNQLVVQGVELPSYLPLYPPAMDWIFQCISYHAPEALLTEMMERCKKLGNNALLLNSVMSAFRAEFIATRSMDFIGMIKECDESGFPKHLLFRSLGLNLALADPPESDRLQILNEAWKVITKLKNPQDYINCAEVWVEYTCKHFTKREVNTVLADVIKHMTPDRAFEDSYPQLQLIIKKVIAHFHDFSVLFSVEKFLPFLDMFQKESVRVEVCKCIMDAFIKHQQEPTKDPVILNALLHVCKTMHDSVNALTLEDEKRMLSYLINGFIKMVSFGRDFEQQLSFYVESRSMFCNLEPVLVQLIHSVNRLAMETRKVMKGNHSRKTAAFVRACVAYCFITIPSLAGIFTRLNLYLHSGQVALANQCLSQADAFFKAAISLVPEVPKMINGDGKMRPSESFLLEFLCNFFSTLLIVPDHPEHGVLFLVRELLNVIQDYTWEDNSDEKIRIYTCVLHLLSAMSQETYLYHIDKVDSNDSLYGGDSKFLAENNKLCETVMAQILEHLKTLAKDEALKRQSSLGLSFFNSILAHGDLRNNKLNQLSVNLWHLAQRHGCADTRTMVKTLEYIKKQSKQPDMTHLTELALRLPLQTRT
Sequence of GFP-tagged VPS35L with complete deletion of the β-hairpin (human) (Q7Z3J2 whole entry, stated change not applied): as the sequence (Q7Z3J2 whole entry I761G) above, with G761I counted along it

Take “VPS29 (endogenous, HEK293T) (from UniProt Q9UBQ0 1-182) (natural protein)”: the percent reduction in binding (against wild type) in test [1] and in test [2] was more than 50% in each case.

The values above are taken from doi:10.1101/2023.01.25.525455.
